Drawing on patent US20210388087A1, this text covers fold change of affinity for 20 molecules.

B1: H183/L072 VL H27dV (antibody, name in Kabat numbering, V domains shown)
VH: QVQLVESGGGLVQPGRSLRLSCAASGFTFSNAWMHWVRQAPGKGLEWVAQIKDKGNAYAAYYAPSVKGRFTISRDDSKNSIYLQMNSLKTEDTAVYYCHYVHYASASTVLPAFGVDAWGQGTTVTVSS
VL: DIVMTQSPLSLPVTPGEPASISCQASQELVVMNRNTYLHWYQQKPGQAPRLLIYKVSNRFPGVPDRFSGSGSGTDFTLKISRVEAEDVGVYYCAQGTSVPFTFGQGTKLEIK
B2: H183/L072 VL N28R (antibody, name in Kabat numbering, V domains shown)
VH: QVQLVESGGGLVQPGRSLRLSCAASGFTFSNAWMHWVRQAPGKGLEWVAQIKDKGNAYAAYYAPSVKGRFTISRDDSKNSIYLQMNSLKTEDTAVYYCHYVHYASASTVLPAFGVDAWGQGTTVTVSS
VL: DIVMTQSPLSLPVTPGEPASISCQASQELVHMRRNTYLHWYQQKPGQAPRLLIYKVSNRFPGVPDRFSGSGSGTDFTLKISRVEAEDVGVYYCAQGTSVPFTFGQGTKLEIK
B3: H183/L072 VL L33W (antibody, name in Kabat numbering, V domains shown)
VH: QVQLVESGGGLVQPGRSLRLSCAASGFTFSNAWMHWVRQAPGKGLEWVAQIKDKGNAYAAYYAPSVKGRFTISRDDSKNSIYLQMNSLKTEDTAVYYCHYVHYASASTVLPAFGVDAWGQGTTVTVSS
VL: DIVMTQSPLSLPVTPGEPASISCQASQELVHMNRNTYWHWYQQKPGQAPRLLIYKVSNRFPGVPDRFSGSGSGTDFTLKISRVEAEDVGVYYCAQGTSVPFTFGQGTKLEIK
B4: H183/L072 VL N28V (antibody, name in Kabat numbering, V domains shown)
VH: QVQLVESGGGLVQPGRSLRLSCAASGFTFSNAWMHWVRQAPGKGLEWVAQIKDKGNAYAAYYAPSVKGRFTISRDDSKNSIYLQMNSLKTEDTAVYYCHYVHYASASTVLPAFGVDAWGQGTTVTVSS
VL: DIVMTQSPLSLPVTPGEPASISCQASQELVHMVRNTYLHWYQQKPGQAPRLLIYKVSNRFPGVPDRFSGSGSGTDFTLKISRVEAEDVGVYYCAQGTSVPFTFGQGTKLEIK
B5: H183/L072 VL T31W (antibody, name in Kabat numbering, V domains shown)
VH: QVQLVESGGGLVQPGRSLRLSCAASGFTFSNAWMHWVRQAPGKGLEWVAQIKDKGNAYAAYYAPSVKGRFTISRDDSKNSIYLQMNSLKTEDTAVYYCHYVHYASASTVLPAFGVDAWGQGTTVTVSS
VL: DIVMTQSPLSLPVTPGEPASISCQASQELVHMNRNWYLHWYQQKPGQAPRLLIYKVSNRFPGVPDRFSGSGSGTDFTLKISRVEAEDVGVYYCAQGTSVPFTFGQGTKLEIK
B6: H183/L072 VL L27bG (antibody, name in Kabat numbering, V domains shown)
VH: QVQLVESGGGLVQPGRSLRLSCAASGFTFSNAWMHWVRQAPGKGLEWVAQIKDKGNAYAAYYAPSVKGRFTISRDDSKNSIYLQMNSLKTEDTAVYYCHYVHYASASTVLPAFGVDAWGQGTTVTVSS
VL: DIVMTQSPLSLPVTPGEPASISCQASQEGVHMNRNTYLHWYQQKPGQAPRLLIYKVSNRFPGVPDRFSGSGSGTDFTLKISRVEAEDVGVYYCAQGTSVPFTFGQGTKLEIK
B7: H183/L072 VL N28Y (antibody, name in Kabat numbering, V domains shown)
VH: QVQLVESGGGLVQPGRSLRLSCAASGFTFSNAWMHWVRQAPGKGLEWVAQIKDKGNAYAAYYAPSVKGRFTISRDDSKNSIYLQMNSLKTEDTAVYYCHYVHYASASTVLPAFGVDAWGQGTTVTVSS
VL: DIVMTQSPLSLPVTPGEPASISCQASQELVHMYRNTYLHWYQQKPGQAPRLLIYKVSNRFPGVPDRFSGSGSGTDFTLKISRVEAEDVGVYYCAQGTSVPFTFGQGTKLEIK
B8: H183/L072 VL H27dY (antibody, name in Kabat numbering, V domains shown)
VH: QVQLVESGGGLVQPGRSLRLSCAASGFTFSNAWMHWVRQAPGKGLEWVAQIKDKGNAYAAYYAPSVKGRFTISRDDSKNSIYLQMNSLKTEDTAVYYCHYVHYASASTVLPAFGVDAWGQGTTVTVSS
VL: DIVMTQSPLSLPVTPGEPASISCQASQELVYMNRNTYLHWYQQKPGQAPRLLIYKVSNRFPGVPDRFSGSGSGTDFTLKISRVEAEDVGVYYCAQGTSVPFTFGQGTKLEIK
B9: H183/L072 VL Y32V (antibody, name in Kabat numbering, V domains shown)
VH: QVQLVESGGGLVQPGRSLRLSCAASGFTFSNAWMHWVRQAPGKGLEWVAQIKDKGNAYAAYYAPSVKGRFTISRDDSKNSIYLQMNSLKTEDTAVYYCHYVHYASASTVLPAFGVDAWGQGTTVTVSS
VL: DIVMTQSPLSLPVTPGEPASISCQASQELVHMNRNTVLHWYQQKPGQAPRLLIYKVSNRFPGVPDRFSGSGSGTDFTLKISRVEAEDVGVYYCAQGTSVPFTFGQGTKLEIK
B10: H183/L072 VL L27bW (antibody, name in Kabat numbering, V domains shown)
VH: QVQLVESGGGLVQPGRSLRLSCAASGFTFSNAWMHWVRQAPGKGLEWVAQIKDKGNAYAAYYAPSVKGRFTISRDDSKNSIYLQMNSLKTEDTAVYYCHYVHYASASTVLPAFGVDAWGQGTTVTVSS
VL: DIVMTQSPLSLPVTPGEPASISCQASQEWVHMNRNTYLHWYQQKPGQAPRLLIYKVSNRFPGVPDRFSGSGSGTDFTLKISRVEAEDVGVYYCAQGTSVPFTFGQGTKLEIK
B11: H183/L072 VL H27dR (antibody, name in Kabat numbering, V domains shown)
VH: QVQLVESGGGLVQPGRSLRLSCAASGFTFSNAWMHWVRQAPGKGLEWVAQIKDKGNAYAAYYAPSVKGRFTISRDDSKNSIYLQMNSLKTEDTAVYYCHYVHYASASTVLPAFGVDAWGQGTTVTVSS
VL: DIVMTQSPLSLPVTPGEPASISCQASQELVRMNRNTYLHWYQQKPGQAPRLLIYKVSNRFPGVPDRFSGSGSGTDFTLKISRVEAEDVGVYYCAQGTSVPFTFGQGTKLEIK
B12: H183/L072 VL T31Y (antibody, name in Kabat numbering, V domains shown)
VH: QVQLVESGGGLVQPGRSLRLSCAASGFTFSNAWMHWVRQAPGKGLEWVAQIKDKGNAYAAYYAPSVKGRFTISRDDSKNSIYLQMNSLKTEDTAVYYCHYVHYASASTVLPAFGVDAWGQGTTVTVSS
VL: DIVMTQSPLSLPVTPGEPASISCQASQELVHMNRNYYLHWYQQKPGQAPRLLIYKVSNRFPGVPDRFSGSGSGTDFTLKISRVEAEDVGVYYCAQGTSVPFTFGQGTKLEIK
B13: H183/L072 VL H34V (antibody, name in Kabat numbering, V domains shown)
VH: QVQLVESGGGLVQPGRSLRLSCAASGFTFSNAWMHWVRQAPGKGLEWVAQIKDKGNAYAAYYAPSVKGRFTISRDDSKNSIYLQMNSLKTEDTAVYYCHYVHYASASTVLPAFGVDAWGQGTTVTVSS
VL: DIVMTQSPLSLPVTPGEPASISCQASQELVHMNRNTYLVWYQQKPGQAPRLLIYKVSNRFPGVPDRFSGSGSGTDFTLKISRVEAEDVGVYYCAQGTSVPFTFGQGTKLEIK
B14: H183/L072 VL V27cG (antibody, name in Kabat numbering, V domains shown)
VH: QVQLVESGGGLVQPGRSLRLSCAASGFTFSNAWMHWVRQAPGKGLEWVAQIKDKGNAYAAYYAPSVKGRFTISRDDSKNSIYLQMNSLKTEDTAVYYCHYVHYASASTVLPAFGVDAWGQGTTVTVSS
VL: DIVMTQSPLSLPVTPGEPASISCQASQELGHMNRNTYLHWYQQKPGQAPRLLIYKVSNRFPGVPDRFSGSGSGTDFTLKISRVEAEDVGVYYCAQGTSVPFTFGQGTKLEIK
B15: H183/L072 VL Y32W (antibody, name in Kabat numbering, V domains shown)
VH: QVQLVESGGGLVQPGRSLRLSCAASGFTFSNAWMHWVRQAPGKGLEWVAQIKDKGNAYAAYYAPSVKGRFTISRDDSKNSIYLQMNSLKTEDTAVYYCHYVHYASASTVLPAFGVDAWGQGTTVTVSS
VL: DIVMTQSPLSLPVTPGEPASISCQASQELVHMNRNTWLHWYQQKPGQAPRLLIYKVSNRFPGVPDRFSGSGSGTDFTLKISRVEAEDVGVYYCAQGTSVPFTFGQGTKLEIK
B16: H183/L072 VL T31F (antibody, name in Kabat numbering, V domains shown)
VH: QVQLVESGGGLVQPGRSLRLSCAASGFTFSNAWMHWVRQAPGKGLEWVAQIKDKGNAYAAYYAPSVKGRFTISRDDSKNSIYLQMNSLKTEDTAVYYCHYVHYASASTVLPAFGVDAWGQGTTVTVSS
VL: DIVMTQSPLSLPVTPGEPASISCQASQELVHMNRNFYLHWYQQKPGQAPRLLIYKVSNRFPGVPDRFSGSGSGTDFTLKISRVEAEDVGVYYCAQGTSVPFTFGQGTKLEIK
B17: H183/L072 VL N28F (antibody, name in Kabat numbering, V domains shown)
VH: QVQLVESGGGLVQPGRSLRLSCAASGFTFSNAWMHWVRQAPGKGLEWVAQIKDKGNAYAAYYAPSVKGRFTISRDDSKNSIYLQMNSLKTEDTAVYYCHYVHYASASTVLPAFGVDAWGQGTTVTVSS
VL: DIVMTQSPLSLPVTPGEPASISCQASQELVHMFRNTYLHWYQQKPGQAPRLLIYKVSNRFPGVPDRFSGSGSGTDFTLKISRVEAEDVGVYYCAQGTSVPFTFGQGTKLEIK
B18: H183/L072 VL H27dW (antibody, name in Kabat numbering, V domains shown)
VH: QVQLVESGGGLVQPGRSLRLSCAASGFTFSNAWMHWVRQAPGKGLEWVAQIKDKGNAYAAYYAPSVKGRFTISRDDSKNSIYLQMNSLKTEDTAVYYCHYVHYASASTVLPAFGVDAWGQGTTVTVSS
VL: DIVMTQSPLSLPVTPGEPASISCQASQELVWMNRNTYLHWYQQKPGQAPRLLIYKVSNRFPGVPDRFSGSGSGTDFTLKISRVEAEDVGVYYCAQGTSVPFTFGQGTKLEIK
B19: H183/L072 VL Y32F (antibody, name in Kabat numbering, V domains shown)
VH: QVQLVESGGGLVQPGRSLRLSCAASGFTFSNAWMHWVRQAPGKGLEWVAQIKDKGNAYAAYYAPSVKGRFTISRDDSKNSIYLQMNSLKTEDTAVYYCHYVHYASASTVLPAFGVDAWGQGTTVTVSS
VL: DIVMTQSPLSLPVTPGEPASISCQASQELVHMNRNTFLHWYQQKPGQAPRLLIYKVSNRFPGVPDRFSGSGSGTDFTLKISRVEAEDVGVYYCAQGTSVPFTFGQGTKLEIK
B20: H183/L072 VL N28W (antibody, name in Kabat numbering, V domains shown)
VH: QVQLVESGGGLVQPGRSLRLSCAASGFTFSNAWMHWVRQAPGKGLEWVAQIKDKGNAYAAYYAPSVKGRFTISRDDSKNSIYLQMNSLKTEDTAVYYCHYVHYASASTVLPAFGVDAWGQGTTVTVSS
VL: DIVMTQSPLSLPVTPGEPASISCQASQELVHMWRNTYLHWYQQKPGQAPRLLIYKVSNRFPGVPDRFSGSGSGTDFTLKISRVEAEDVGVYYCAQGTSVPFTFGQGTKLEIK

Sequence of Human CD3eg linker (human) (chain, as listed by the source limits assumed): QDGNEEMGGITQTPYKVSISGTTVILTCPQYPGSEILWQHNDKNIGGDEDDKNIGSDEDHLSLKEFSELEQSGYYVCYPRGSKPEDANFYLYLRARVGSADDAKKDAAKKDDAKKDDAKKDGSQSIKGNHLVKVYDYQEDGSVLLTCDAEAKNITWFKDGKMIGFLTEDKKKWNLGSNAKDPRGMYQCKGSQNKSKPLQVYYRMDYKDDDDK

This assay concerns the target Human CD3eg linker (human). Put plainly: SPR; fold vs parent H183/L072.
As to B1, the fold change of affinity was 0 fold. As for B2, the fold change of affinity was found to be 0 fold. As for B3, the figure is 0 fold; as for B4, 0 fold. Under B5 stands 0 fold; under B6, 0 fold.

Take B7: the fold change of affinity came to 0 fold.

Turning to B8, the fold change of affinity was determined as 0 fold.

Take B9: the fold change of affinity came to 0 fold. Take B10: the fold change of affinity was 0 fold. In the case of B11, the fold change of affinity is 0 fold. In the case of B12, the fold change of affinity came out at 0 fold.

Consider B13, for which the fold change of affinity came to 0 fold. For B14, the fold change of affinity worked out at 0 fold. As for B15, the figure is 0 fold; as for B16, 0 fold. As for B17, the fold change of affinity worked out at 0 fold. Regarding B18, the fold change of affinity turned out to be 0 fold. As to B19, the fold change of affinity turned out to be 0 fold. Turning to B20, the fold change of affinity stood at 0 fold.
